Data taken from the supplement of paper PMC10126150.
± gives the standard deviation of the averaged measurements.

System: ATP
Assay: switch fluorescence ratio, 500 uM ATP over buffer (Cy3 cluster intensity, sum of 5 cycles each) (fold (ratio)); higher = stronger signal-on switching upon ATP binding; sequences stand for … in TCGTCGGCAGCGTCAGATGTGTATAAGAGACAGTTTTTTTTTTTTTTTTTTTTTTTTT…TC
Details: aptamer strand: ATP DNA aptamer (quencher-CACCTGGGGGAGTATTGCGGAGGAAGG + anchor), 100 nM annealed; ATP concentration: 500 uM
How it was run: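 The fluorescence ratio divides summed target-cycle Cy3 intensity by summed buffer-cycle Cy3 intensity for each cluster and is averaged per switch-domain sequence. Cy3-labelled switching-strand clusters on a modified Illumina MiSeq flow-cell were annealed to 100 nM quencher-labelled ATP aptamer, then imaged in selection buffer and again after 15 min with 500 uM ATP at 22 °C. Five such cycles were run, with NaOH stripping and re-annealing between them, and clusters outside 100-1000 RFU were excluded.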
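Also: ATP exposure 15 min at 22 °C before imaging.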

Sequence | switch fluorescence ratio
CCGTTTCCGG | 1.02 ± 0.027
AGTTGTTTG | 1.002 ± 0.0099
AACTTCCGCA | 1.29 ± 0.038
AGAGGTATCT | 0.9872 ± 0.0046
TTATGGGAAG | 0.998 ± 0.013
GGGAATACGT | 1.03 ± 0.029
GAGTTTGGAC | 0.985 ± 0.058
GGGTATATAG | 1.02 ± 0.036
AAATTTTGTT | 0.987 ± 0.021
ATCGGAAGAA | 1.01 ± 0.017
TGGTAATATT | 0.962 ± 0.015
GTGTGATTTT | 0.992 ± 0.028
TCTGTTTTTG | 1.01 ± 0.063
CAATATGTTG | 1.02 ± 0.035
GCGATGTAGA | 1.051 ± 0.0087
GACAGGTATC | 1.01 ± 0.057
ATAAAAAATC | 0.986 ± 0.017
TCTAATTCCT | 1.06 ± 0.024
TGTTTTCGCT | 0.9969 ± 0.0097
CAGGTAAATG | 0.9961 ± 0.0027
CGGGGGGTGT | 1.01 ± 0.023
GAGTGTGTTC | 1.01 ± 0.024
TTATTACTTA | 0.984 ± 0.017

Sequence | switch fluorescence ratio
GAGGTAGATA | 1.03 ± 0.046
TTTTTTGCAA | 1.06 ± 0.061
TTCGAAGGTT | 0.979 ± 0.017
GGCCCGGGGG | 1.01 ± 0.028
TATCGATGTT | 1.005 ± 0.0099
TTCCTTGGAT | 1.015 ± 0.0019
GCCGGCGTCG | 1.03 ± 0.035
TTTGGTTATA | 1 ± 0.012
CGGAAGGCTA | 1.025 ± 0.0069
GTTTAAGGCC | 1.01 ± 0.043
CATGCAGGGT | 1.04 ± 0.016
TTGGTGCATG | 1.01 ± 0.04
TTTTCAGAAG | 0.997 ± 0.013
TGGGGGAACC | 1.004 ± 0.0099
TGAGGTAGGG | 0.976 ± 0.053
TGTGGTACCA | 1.01 ± 0.023
ATTAAGCAAG | 1.04 ± 0.015
AATATGAAGG | 1 ± 0.019
TACAGCTTTT | 1.01 ± 0.031
CCCGGTGTGT | 1.65 ± 0.025
TTGTTTTGCA | 0.971 ± 0.018
TACGGTCCTG | 0.99156 ± 0.00092
GATTGATAGG | 0.99961 ± 0.00019

Sequence | switch fluorescence ratio
ATTAAAAAAG | 0.985 ± 0.028
TTTTACTTGG | 0.993 ± 0.015
TAAGGGTTTC | 1.02 ± 0.066
GGGGGAGTGG | 0.982 ± 0.054
TCAGTTGTGC | 1.01 ± 0.042
GATGTAGTAG | 1.01 ± 0.042
ACTTGGGGGG | 0.994 ± 0.012
TTTCGATGGG | 0.978 ± 0.015
GATCATAGTT | 0.995 ± 0.013
ATGTTATCGA | 1.008 ± 0.0074
CCTGGGAGCA | 1.08 ± 0.057
TTACCGTACG | 1.45 ± 0.11
ATCGACGGGG | 1.01 ± 0.01
ATTGCTTTTT | 0.9834 ± 0.0066
GCCGGGTATG | 1.02 ± 0.022
GCAGGGATAC | 3.4 ± 0.048
ACATTCTATT | 1.01 ± 0.021
TATGTTAGGA | 1.0104 ± 0.00038
TGACGACGAG | 0.992 ± 0.052
TACTTTGGGG | 0.989 ± 0.022
GAGAGATTGT | 1.005 ± 0.0086
CCTCTTTTTG | 1.02 ± 0.011
AGGGTCAACG | 1.018 ± 0.0099

Sequence | switch fluorescence ratio
GGTGATACAG | 1.003 ± 0.0051
GAGGTGGTGG | 0.998 ± 0.036
ATGGGGGGAA | 0.996 ± 0.037
GGTACTCGGG | 0.961 ± 0.013
AGGATAGGAG | 0.9957 ± 0.0014
CGCTATGGGA | 1.02 ± 0.026
GCCATGTTTT | 0.9646 ± 0.008
GTTCAAGGGC | 0.996 ± 0.032
GGGGGGAAAT | 1.01 ± 0.057
CTGTTTCGAC | 1.02 ± 0.051
TGCACAGTCG | 1.01 ± 0.036
AACCACTGGG | 1.17 ± 0.13
TAGAGCATTG | 1 ± 0.044
CCTCAAAGGG | 1.38 ± 0.18
TGGTTAAGGT | 0.982 ± 0.033
ATATAAGTTC | 1.06 ± 0.055
TCATAACTGC | 1.02 ± 0.029
GATGTTCCGT | 0.9958 ± 0.0049
TTGGTAATCC | 1.011 ± 0.0026
GAAGTGGGTG | 1.11 ± 0.17
AAGGGGTTTT | 1 ± 0.036
CAATGGGGGT | 1 ± 0.038
TCAAACAGGG | 1.04 ± 0.051

Sequence | switch fluorescence ratio
TCAACAACCA | 1.06 ± 0.017
GGGGGGTGG | 0.9912 ± 0.0055
AGGGTAACGA | 0.999 ± 0.035
CTGCGGGGGA | 1.03 ± 0.037
GCCAAAACCT | 2 ± 0.76
AGCTGTGATG | 1.01 ± 0.058
GTTCGTTAGC | 0.988 ± 0.004
TTAATGGGAT | 0.987 ± 0.021
TAGGTCCCTG | 0.99 ± 0.042
TTTCTTTT | 1.042 ± 0.0027
GCGCATCATT | 0.986 ± 0.025
TGCACCGAGT | 1.04 ± 0.018
ACTTTAGTTC | 1.01 ± 0.036
TACTGGCCGG | 1.03 ± 0.029
CATATATCGG | 1.02 ± 0.012
GATTACAGCG | 1.01 ± 0.02
CAGTTGCTGA | 0.999 ± 0.011
CTGTCTGGCT | 1.02 ± 0.016
AAAGGTAGAG | 1.01 ± 0.04
TTGATGTTGG | 0.992 ± 0.048
ATTTTCGGTG | 1.01 ± 0.024
AGTAAAGGCC | 1.02 ± 0.08
CGTTTTATCT | 1.03 ± 0.025

Sequence | switch fluorescence ratio
GACAGTGTGG | 0.997 ± 0.049
TTGTAGTATC | 1 ± 0.025
GGAGTAACAT | 1.04 ± 0.012
GTAATGGCGG | 1.013 ± 0.0019
GCTGCGCATT | 1.94 ± 0.028
TTGGGTTTAT | 0.999 ± 0.017
GTGGACAGGC | 1 ± 0.02
ATGCTGTCTG | 1 ± 0.043
TCTTAGTTAG | 0.9878 ± 0.0059
GCGGCAAGGA | 1.04 ± 0.017
TGAGTAAGGA | 1.03 ± 0.034
GTCTGAGGGG | 0.9965 ± 0.0061
TGCGATTAAG | 1 ± 0.047
GGGAGGATTA | 1 ± 0.031
GCGTAGGTGT | 1.09 ± 0.033
TTTTTAATTC | 1.03 ± 0.024
TTACACGATA | 1.32 ± 0.15
GCTATTAAGT | 0.9695 ± 0.003
ATCCTACAGC | 1.1 ± 0.025
TATAGTTGTT | 0.992 ± 0.018
GGTCTAGGGT | 1.03 ± 0.025
TGGGACCCCC | 1.34 ± 0.47
TCGGGTAAGC | 1.014 ± 0.0052

Sequence | switch fluorescence ratio
GGAAGGCCTA | 0.954 ± 0.017
TCTAATGGGT | 0.982 ± 0.017
AGATGACTGA | 0.997 ± 0.048
CATTCGCTTT | 1.88 ± 0.036
GCGTGAGTTG | 0.9783 ± 0.0085
AACGGGGGTG | 1.01 ± 0.045
GGAAGTTACA | 1.06 ± 0.016
TTGTAGTTGG | 0.986 ± 0.058
CGAAGATTTG | 1 ± 0.015
GGGGGGGTGA | 1.01 ± 0.038
TGGTTGGGCC | 0.985 ± 0.06
GCCTGGGACC | 0.996 ± 0.022
GAAAGGTTGG | 0.993 ± 0.025
AATGTTCTTT | 0.977 ± 0.062
CGGTGGAATC | 1.36 ± 0.45
TCTGGAAGGG | 1.02 ± 0.019
TACAGAGGG | 0.966 ± 0.06
TTCATAATGT | 0.9632 ± 0.0096
AATAATCAAA | 1.01 ± 0.006
